Data published in patent US20250263440A1, “CD38-BINDING AGENTS AND USES THEREOF” (PeptiDream Inc., priority 2019, published 2025).
Values belong to the molecule of their own block, whether it stands above or below them. Positions of bridges follow the written chain, without caps; N, C: chain ends. Non-standard residues stand in square brackets, D forms with d. Residues, ends and D or L forms follow the SMILES beside them. No end group written: not given here. PEG12 = NCCOCCOCCOCCOCCOCCOCCOCCOCCOCCOCCOCCOCCC(=O)O; Bip = N[C@@H](Cc1ccc(-c2ccccc2)cc1)C(=O)O; Met(O2) = CS(=O)(=O)CC[C@H](N)C(=O)O; NMeF = CN[C@@H](Cc1ccccc1)C(=O)O; Ahp(2) = CCCCC[C@H](N)C(=O)O; PEG4 = NCCOCCOCCOCCOCCC(=O)O

Key:
CD38 [1] = biological target: T1, CD38 (Homo sapiens, UniProt P28907); assay: ELISA binding assay of I-1 / I-2 sequence variants to CD38
T1 construct: purchased R&D Systems
Experimental: Recombinant human CD38 proteins were purchased from R&D Systems. In some embodiments, the following codons were used. ClAc-Ala: N-Chloroacetyl-L-alanine; MePhe: N-Methyl-L-phenylalanine; MeGly: N-Methyl-glycine; Ahp: (S)-2-aminoheptanoic acid; Bph: (S)-3-([1,1′-biphenyl]-4-yl)-2-aminopropanoic acid.
A number of compounds having similar structures to compound I-1 (difference being amino acid sequence) were prepared and assessed in an ELISA assay. The first sequence is of I-1, and SEQ ID.NO.1.
A number of compounds having similar structures to compound I-2 (difference being amino acid sequence) were prepared and assessed in an ELISA assay. The first sequence is of I-2, and SEQ ID NO. 2.

CD38 [2] = biological target: T1, CD38; assay: SPR assay (BIACORE T200, Sensor Chip CM3, single-cycle kinetics) of binding to immobilized CD38; conditions: for kon / koff: SPR Biacore T200, CM3 chip, HBS-EP with 1% DMSO; for kon: read-out: Ka (association rate constant); for koff: read-out: Kd (dissociation rate constant); for Kd: pegylated compounds, SPR as in Example 2
Experimental: One of many useful technology for assessing CD38 binding is surface plasmon resonance (SPR). For example, the binding constant of I-1 (SEQ ID NO. 1; same as below) and I-2 (SEQ ID NO. 2; same as below) to CD38 was analyzed by a SPR assay using BIACORE T200 (cytiva: Former GE Healthcare). After the equilibration of Series S Sensor Chip CM3 (produced by cytiva: Former GE Healthcare) with Running Buffer (HBS-EP with 1% (v/v) DMSO), an EDC/NHS mixture was injected at a flow rate of […] for 4 minutes to thereby activate the functional groups on sensor chip. CD38 in 10 mM Acetate (pH5.5) was injected immobilized to at a flow rate of 5 L/min. For 4 minutes to immobilize the CD38 on the substrate surfaces of the sensor chip. Then Ethanolamine was injected at a flow rate of […] for 4 minutes. 1.0 M Ethanolamine (aq.) was injected at a flow rate of […] for 420 seconds for capping. 10 mM Peptides in DMSO were diluted to obtain 10 uM with Running Buffer, and prepared 100 nM, 50 nM, 25 nM, 10 nM, 5 nM of each peptide solutions (Peptide Samples).
(§1) Using these Peptide Samples, kinetics of peptides against CD38 was measured. The method adopted for sample measurement was a single-cycle kinetics method. The analysis was conducted using the evaluation software provided with Biacore T200. A DMSO correction curve obtained by solvent correction measurements was applied for the analysis. Kinetics fitting was done on the difference data obtained by subtracting the baseline data from sample measurement data.
KD values were calculated based on the association rate constant (ka) and dissociation rate constant (kd).
The binding constant of pegylated compounds was analyzed by a surface plasmon resonance as in the Example −2.

His-tagged CD38 = biological target: T2, His-tagged CD38 (human, UniProt P28907 43-300, limits assumed); assay: SPR (Biacore S200), His-tagged CD38 immobilised, single-cycle kinetics
T2 construct: The order of CD38 and tag is not known; not shown: His tag
Experimental: EDC/NHS mixture was injected at a flow rate of […] for 7 minutes to thereby activate the functional groups on sensor chip. His-tagged CD38 in Running Buffer (10 mM HEPES pH7.4, 150 mM NaCl, 0.05% Tween 20) was injected immobilized to at a flow rate of […]. For 7 minutes to immobilize the CD38 on the substrate surfaces of the sensor chip. Then Ethanolamine was injected at a flow rate of […] for 7 minutes.
1.0 M Ethanolamine(aq.) was injected at a flow rate of 10 L/min for 420 seconds for capping. 10 mM peptides (which were synthesised described above) in DMSO were diluted to obtain 10 uM with Running Buffer, and prepared 100 nM, 50 nM, 25 nM, 10 nM, 5 nM of each peptide's solutions (Peptide Samples).
as §1, with “against His-tagged” for “against”, “software 1.1” for “software”, “S200.” for “T200.”

[3] = compounds similar to I-2, larger values indicate stronger binding
[4] = compounds similar to I-1, larger values indicate stronger binding

- Binding Assay (CD38 [1]; [3]): 0.10
Molecule: A L H A V L P Bph V W V C: compound of similar structure to I-2, difference being amino acid sequence: Ala at position 4 (ALHAVLP[Bip]VWVC; not fully specified (N-terminus, bridges))

- Binding Assay (CD38 [1]; [4]): 0.28
Molecule: A R Ahp Y A D G V L Bpb Ahp D C: compound of similar structure to I-1, difference being amino acid sequence: Ala at position 5 (YADGVL; not fully specified (N-terminus, C-terminus, bridges))

- Binding Assay (CD38 [1]; [4]): 0.11
Molecule: A R A Y H D G V L Bph Ahp D C: compound of similar structure to I-1, difference being amino acid sequence: Ala at position 3 (ARAYHDGVL[Bip][Ahp(2)]DC; not fully specified (N-terminus, bridges))

- kon (CD38 [2]): 770000 M⁻¹ s⁻¹
- koff (CD38 [2]): 0.0018 s⁻¹
- Binding Assay (CD38 [1]; [4]): 1.97
Molecule: CCCCC[C@@H]1NC(=O)[C@H](CCCNC(=N)N)NC(=O)[C@H](C)NC(=O)CSC[C@@H](C(N)=O)NC(=O)[C@H](CC(=O)O)NC(=O)[C@H](CCCCC)NC(=O)[C@H](Cc2ccc(-c3ccccc3)cc2)NC(=O)[C@H](CC(C)C)NC(=O)[C@H](C(C)C)NC(=O)CNC(=O)[C@H](CC(=O)O)NC(=O)[C@H](Cc2c[nH]cn2)NC(=O)[C@H](Cc2ccc(O)cc2)NC1=O [I-1]

- Kd (CD38 [2]): 4.3 nM
Molecule: CCCCC[C@@H]1NC(=O)[C@H](CCCNC(=N)N)NC(=O)[C@H](C)NC(=O)CSC[C@@H](C(=O)NCCOCCOCCOCCOCCOCCOCCOCCOCCOCCOCCOCCOCCC(=O)N[C@@H](CCCCN)C(N)=O)NC(=O)[C@H](CC(=O)O)NC(=O)[C@H](CCCCC)NC(=O)[C@H](Cc2ccc(-c3ccccc3)cc2)NC(=O)[C@H](CC(C)C)NC(=O)[C@H](C(C)C)NC(=O)CNC(=O)[C@H](CC(=O)O)NC(=O)[C@H](Cc2c[nH]cn2)NC(=O)[C@H](Cc2ccc(O)cc2)NC1=O [I-4]

- Kd (CD38 [2]): 11.7 nM
Molecule: CC(C)C[C@@H]1NC(=O)[C@H](C)NC(=O)CSC[C@@H](C(=O)NCCOCCOCCOCCOCCOCCOCCOCCOCCOCCOCCOCCOCCC(=O)N[C@@H](CCCCN)C(N)=O)NC(=O)[C@H](C(C)C)NC(=O)[C@H](Cc2c[nH]c3ccccc23)NC(=O)[C@H](C(C)C)NC(=O)[C@H](Cc2ccc(-c3ccccc3)cc2)NC(=O)[C@@H]2CCCN2C(=O)[C@H](CC(C)C)NC(=O)[C@H](C(C)C)NC(=O)[C@H](Cc2ccccc2)N(C)C(=O)[C@H](Cc2c[nH]cn2)NC1=O [I-6] ({CH2CO}-ALH[NMeF]VLP[Bip]VWVC[PEG12]K-NH2; thioether N-12)

- Binding Assay (CD38 [1]; [4]): 0.60
Molecule: A A Ahp Y H D G V L Bph Ahp D C: compound of similar structure to I-1, difference being amino acid sequence: Ala at position 2 (YHDGVL[Bip][Ahp(2)]DC; not fully specified (N-terminus, bridges))

- Binding Assay (CD38 [1]; [3]): 0.09
Molecule: A L H MeF V L P A V W V C: compound of similar structure to I-2, difference being amino acid sequence: Ala at position 8 (VLPAVWVC; not fully specified (N-terminus, bridges))

- kon (CD38 [2]): 360000 M⁻¹ s⁻¹
- koff (CD38 [2]): 0.013 s⁻¹
- Binding Assay (CD38 [1]; [3]): 1.69
Molecule: CC(C)C[C@@H]1NC(=O)[C@H](C)NC(=O)CSC[C@@H](C(N)=O)NC(=O)[C@H](C(C)C)NC(=O)[C@H](Cc2c[nH]c3ccccc23)NC(=O)[C@H](C(C)C)NC(=O)[C@H](Cc2ccc(-c3ccccc3)cc2)NC(=O)[C@@H]2CCCN2C(=O)[C@H](CC(C)C)NC(=O)[C@H](C(C)C)NC(=O)[C@H](Cc2ccccc2)N(C)C(=O)[C@H](Cc2c[nH]cn2)NC1=O [I-2] ({CH2CO}-ALH[NMeF]VLP[Bip]VWVC-NH2; thioether N-12)

- Binding Assay (CD38 [1]; [4]): 0.11
Molecule: A R Ahp A H D G V L Bph Ahp D C: compound of similar structure to I-1, difference being amino acid sequence: Ala at position 4 (AHDGVL[Bip][Ahp(2)]DC; not fully specified (N-terminus, bridges))

- Kd (CD38 [2]): 10.5 nM
Molecule: CC(C)C[C@@H]1NC(=O)[C@H](C)NC(=O)CSC[C@@H](C(=O)NCCOCCOCCOCCOCCC(=O)N[C@@H](CCCCN)C(N)=O)NC(=O)[C@H](C(C)C)NC(=O)[C@H](Cc2c[nH]c3ccccc23)NC(=O)[C@H](C(C)C)NC(=O)[C@H](Cc2ccc(-c3ccccc3)cc2)NC(=O)[C@@H]2CCCN2C(=O)[C@H](CC(C)C)NC(=O)[C@H](C(C)C)NC(=O)[C@H](Cc2ccccc2)N(C)C(=O)[C@H](Cc2c[nH]cn2)NC1=O [I-5] ({CH2CO}-ALH[NMeF]VLP[Bip]VWVC[PEG4]K-NH2; thioether N-12)

- Kd (His-tagged CD38): 3.34 nM
B1: Circular peptide having amino acid sequence represented by SEQ ID NO.23 (peptide)
peptide: ARXYHDEVLXXDC
modifications: not fully specified; Ahp at 3; Bph at 10; Ano ((S)-2-aminononanoic acid) at 11; circular peptide

- Kd (His-tagged CD38): 1.38 nM
B2: Circular peptide having amino acid sequence represented by SEQ ID NO.25 (peptide)
peptide: ARXYHDEVLXXDC
modifications: not fully specified; Ahp at 3; Bph at 10; PhNle ((S)-2-amino-6-phenylhexanoic acid) at 11; circular peptide

- Kd (His-tagged CD38): 26 nM
B3: Circular peptide having amino acid sequence represented by SEQ ID NO.26 (peptide)
peptide: ARXYHDEVLXXDC
modifications: not fully specified; Ahp at 3; Bph at 10; PhNva ((S)-2-amino-5-phenylpentanoic acid) at 11; circular peptide

- Kd (His-tagged CD38): 3.53 nM
B4: Circular peptide having amino acid sequence represented by SEQ ID NO.24 (peptide)
peptide: ARXYHDEVLXXDC
modifications: not fully specified; Ahp at 3; Bph at 10; Ado ((S)-2-aminoundecanoic acid) at 11; circular peptide

- Kd (His-tagged CD38): 4.99 nM
Molecule: {CH2CO}-AR[Ahp(2)]YHDEVL[Bip][Ahp(2)]AC (thioether N-13) [Peptide of SEQ ID NO.27]

- Kd (His-tagged CD38): 22.2 nM
B5: Circular peptide having amino acid sequence represented by SEQ ID NO.13 (peptide)
peptide: {CH2CO}-AR[Ahp(2)]YHDQV[Met(O2)][Bip][Ahp(2)]DC
modifications: thioether N-13; not fully specified; also: circular peptide, closure not given here

- Kd (His-tagged CD38): 38 nM
B6: Circular peptide having amino acid sequence represented by SEQ ID NO.14 (peptide)
peptide: {CH2CO}-AR[Ahp(2)]YHDEV[Met(O2)][Bip][Ahp(2)]DC
modifications: thioether N-13; not fully specified; also: circular peptide, closure not given here
